The text below walks through data of article PMC10246721, “Cryo-EM structures for the Mycobacterium tuberculosis iron-loaded siderophore transporter IrtAB” (Protein & Cell, 2022).

This assay addresses T1, IrtA, full length (subunit of full-length Mtb IrtAB) (Mycobacterium tuberculosis H37Rv, UniProt P9WQJ9 1-859).
T1 construct: also called Rv1348
T1 sequence: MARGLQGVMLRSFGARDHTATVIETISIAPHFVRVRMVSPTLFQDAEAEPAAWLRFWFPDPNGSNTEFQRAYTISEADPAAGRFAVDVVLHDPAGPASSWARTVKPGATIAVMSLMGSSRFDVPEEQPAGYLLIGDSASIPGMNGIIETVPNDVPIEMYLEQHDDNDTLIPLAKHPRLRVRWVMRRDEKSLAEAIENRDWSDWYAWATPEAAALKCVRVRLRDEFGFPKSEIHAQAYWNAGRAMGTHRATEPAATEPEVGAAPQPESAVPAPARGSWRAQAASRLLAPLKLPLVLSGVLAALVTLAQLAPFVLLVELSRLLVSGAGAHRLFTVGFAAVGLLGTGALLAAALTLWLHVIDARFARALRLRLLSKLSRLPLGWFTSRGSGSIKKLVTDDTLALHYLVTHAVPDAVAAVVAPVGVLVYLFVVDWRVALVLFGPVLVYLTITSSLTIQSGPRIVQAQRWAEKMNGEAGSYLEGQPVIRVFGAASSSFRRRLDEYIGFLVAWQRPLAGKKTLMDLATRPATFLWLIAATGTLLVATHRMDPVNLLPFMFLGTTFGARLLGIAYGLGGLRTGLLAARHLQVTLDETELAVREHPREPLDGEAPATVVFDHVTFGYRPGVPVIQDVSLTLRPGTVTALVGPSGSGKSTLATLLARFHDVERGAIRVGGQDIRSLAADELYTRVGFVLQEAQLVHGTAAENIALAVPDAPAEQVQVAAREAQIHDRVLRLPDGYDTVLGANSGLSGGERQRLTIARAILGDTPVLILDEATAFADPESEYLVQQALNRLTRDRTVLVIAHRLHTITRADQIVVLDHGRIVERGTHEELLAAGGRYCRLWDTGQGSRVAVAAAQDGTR
Put plainly: cryo-EM structure; full-length IrtAB without nucleotide, in digitonin, 20 mmol/L MES pH 6.5, 150 mmol/L NaCl; inward-facing. As to conditions: both partners purified.

B1: IrtB with C-terminal 10x His tag (subunit of Mtb IrtAB) (natural protein)
chain: MIRTWIALVPNDHRARLIGFALLAFCSVVARAVGTVLLVPLMAALFGEAPQRAWLWLGWLSAATVAGWVLDAVTARIGIELGFAVLNHTQHDVADRLPVVRLDWFTAENTATARQAIAATGPELVGLVVNLVTPLTSAILLPAVIALALLPISWQLGVAALAGVPLLLGALWASAAFARRADTAADKANTALTERIIEFARTQQALRAARRVEPARSLVGNALASQHTATMRLLGMQIPGQLLFSIASQLALIVLAGTTAALTITGTLTVPEAIALIVVMVRYLEPFTAVSELAPALESTRATLGRIGSVLTAPVMVAGSGTWRDGAVVPRIEFDDVAFGYDGGSGPVLDGVSFCLQPGTTTAIVGPSGCGKSTILALIAGLHQPTRGRVLIDGTDVATLDARAQQAVCSVVFQHPYLFHGTIRDNVFAADPGASDDQFAQAVRLARVDELIARLPDGANTIVGEAGSALSGGERQRVSIARALLKAAPVLLVDEATSALDAENEAAVVDALAADPRSRTRVIVAHRLASIRHADRVLFVDDGRVVEDGSISELLTAGGRFSQFWRQQHEAAEWQILAE
notes: also called Rv1349
On to B1, for which the binding result is recorded as “binds”.
